# Experimental data published in the nanobody polyreactivity screen of Harvey et al. (2022).
# Test: yeast display, Sf9 membrane polyspecificity reagent, FACS + sequencing; frameworks hold sequencing errors
# How it was run: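 A synthetic nanobody library was expressed on Saccharomyces cerevisiae BJ5465 by galactose induction for 36–48 hours. The library was stained for 1 hour at 4 °C with 10% biotinylated, detergent-solubilized Sf9 membrane reagent and enriched with streptavidin microbeads before FACS. Low and high (top ~1%) gates were set on anti-HA fluorescence for expression and streptavidin fluorescence for reagent binding, and each polyreactivity label reflects the gate of origin.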
row,Sequence,polyreactivity (PSR sort gate)
1,QVQLVESGGGLVQAGGSLRLSCAASGFTFWRYAMGWYRQAPGKERELVAAISYSGGSTYYADSVKGRFTISRDYAKNTVYLQMNSLKPEDTAVYYCNAETGYGVYRTKYGYWGQGTQVTVSS,high polyreactivity
2,QVQLVESGGGLVQAGGSLRLSCAASGFTFWRYGMGWYRQAPGKERELVASITSGGGTNYADSVKGRFTISRDNAKNTVYFQMNSLKPEDTAVYYCAATYPYSWVYSGYYYWGQGTQVTVSS,low polyreactivity
3,QVQLVESGGGLVQAGGSLRLSCAASGFTFWTYAMGWYRPAPGKERELVAAIDSGVSTYYADSVKGRFTISRDNAKNTVYLQMNSLKPEDTAVYYCNAGPSVTSGYDYDYWGQGTQVTVSS,low polyreactivity
4,QVQLVESGGGLVQAGGSLRLSCAASGFTFWTYAMGWYRQAPGKERELVAAIDSGGSTYYADSVKGRFTISRDNAKNTVYLQMNSLKPEDTAVYYCAKDVLAPYSRHDYWGQGTQVTVSS,low polyreactivity
5,QVQLVESGGGLVQAGGSLRLSCAASGFTFWTYAMGWYRQAPGKERELVAAIDSGGSTYYADSVKGRFTISRDNAKNTVYLQMNSLKPEDTAVYYCNAGPSVTSGYDYDYWGQGTQVTVSS,low polyreactivity
6,QVQLVESGGGLVQAGGSLRLSCAASGFTFWTYDMGWYRQAPGKERELVAAISTSGGSTYYADSVKGRFTISRDNAKNTVYLQMNSLKPEDTAVYYCAAYAIGEHFRARYGYWGQGTQVTVSS,high polyreactivity
7,QVQLVESGGGLVQAGGSLRLSCAASGFTFWWYTMGWYRPAPGKERELVAAITSGGSTYYADSVKGRFTISRDNAKNTVYLQMNSLKPEDTAVYYCNVVPYLYGLDGYDYWGQGTQVTVSS,high polyreactivity
8,QVQLVESGGGLVQAGGSLRLSCAASGFTFWYYAMGWYRQAPGKERELVAAIDSGVTRTYYADSVKGRFTISRDNAKNTVYLQMNSLKPEDTAVYYCNADFVWRGDYWGQGTQVTVSS,low polyreactivity
9,QVQLVESGGGLVQAGGSLRLSCAASGFTFWYYAMGWYRQAPGKERELVARITSRGADTYADSVKGRFTISRDNAKNTVYLQKNSLKPEDTAVYYCNAEFGRARDDDYWGQGTQVTVSS,low polyreactivity
10,QVQLVESGGGLVQAGGSLRLSCAASGFTFYANAMGWYRQAPGKERELVAAIDESGTSTNYADSVKGRFTISRDNAKNTVYLQMNSQKPEDTAVYYCAADGNSTGVYLDGGEGFAYDYWGHGTQVTVSS,low polyreactivity
11,QVQLVESGGGLVQAGGSLRLSCAASGFTFYDNAMGWYRQAPGKERELVAAISSSGTRTYYADSVKGRFTISRDNAKNTVYLQMNSLKPEDTAVYYCAARGQAYSGDRMYYWGQGTQVTVSS,high polyreactivity
12,QVQLVESGGGLVQAGGSLRLSCAASGFTFYGNAMGWYRQAPGKERELVASISTYYADSVKGRFTISRDNAKNTVYLQMNSLKPEDTAVYYCAATHYDRTYYVIYDYWGQGTQVTVST,low polyreactivity
13,QVQLVESGGGLVQAGGSLRLSCAASGFTFYGYAMGWYRQAPGKERELVAAINSAGRTYYADSVKGRFTISRDNAKNTVYLQMNSLKPEDTAVYYCASKYVRGHGYWGQGTQVTVSS,high polyreactivity
14,QVQLVESGGGLVQAGGSLRLSCAASGFTFYGYAMGWYRQAPGKERELVAAISSRGSRTYYADSVKGRFTISRDNAKNTGYLQMNSLKPEDTAFYYCAVDKAITQGLYDYWGQGTQVTVSS,high polyreactivity
15,QVQLVESGGGLVQAGGSLRLSCAASGFTFYGYAMGWYRQAPGKERELVAAISSSGGRTYYADSVKGRFTISRDNAKNTVYLQMNSLKPEDTAVYYCAADYTSRDYYYWGQGTQVTVSS,high polyreactivity
16,QVQLVESGGGLVQAGGSLRLSCAASGFTFYGYAMGWYRQAPGKERELVAAISSSGTSTYYADSVKGRFTISRDNEKNTVYLQMNSLKPEDTAVYYCAKDFYRRYYSWGQGTQVTVSS,high polyreactivity
